Results: patent US20250283164

Tests used:
BamHI = experiment: FP; details: negative control, little affinity
GFP = experiment: FP; details: negative control, little affinity

For random-sequence RNA, the Kd (BamHI) was > 4 µM and the Kd (GFP) was > 4 µM.
